Where two headings read alike, the source gives them in different places.
What was measured:
cryo-EM structure [1] = biological target: the molecule itself; experiment: cryo-EM structure
cryo-EM structure [2] = biological target: the molecule itself; experiment: cryo-EM structure; remark: listed apart in the source

B1: FliL of Borrelia burgdorferi (BbFliL) (natural protein, UniProt Q57442 1-178, looked up)
chain: MPNKDDDNLDMGDSNVSRKGGLLPDIIIKILQILAIGIFTVAIMIIVSYFVSKMVVSQSGAPSDFPVFSNEYLGKPPMLIWYESIDEIRGNTLDVPPKTFVVKLALGYAENNVNILNELGRQKVRLKDIIREYFSQRTGQEIKNESQIKAEIKARINSILRNGEIKEIALTQIDIFDM
- stoichiometry N (cryo-EM structure [1]): 4
- stoichiometry N (cryo-EM structure [2]): 10

Reference: article PMC8931381 (Proceedings of the National Academy of Sciences of the …, 2022)
